In the supplement of paper PMC9170038:

How the values were obtained:
MS2 coat protein [1] = experiment: apparent KD of MS2 coat protein, switch ON state; designed switch direction (-1 OFF switch, 1 ON switch): 1; higher = weaker reporter binding; conditions: FMN input: 0 or 200 uM; Eterna round: R93 (includes R88 designs)
How it was run: (§1)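 Illumina sequencing clusters served as templates for on-chip transcription of the designed RNA switches. SNAP-549-labelled MS2 coat protein was then titrated in twofold steps from 0.7 or 1.5 nM to 3 µM, allowing 0.8–1.5 h per step at first and 10–20 min per step later. The buffer held 100 mM Tris-HCl pH 7.5, 80 mM KCl and 4 mM MgCl2, without or with constant ligand. Apparent KD is the median per design of normalised cluster binding-curve fits.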

MS2 coat protein [2] = experiment: apparent KD of MS2 coat protein, switch OFF state (with FMN for OFF switches, without FMN for ON switches); designed switch direction (-1 OFF switch, 1 ON switch): 1; higher = weaker reporter binding; conditions: FMN input: 0 or 200 uM; Eterna round: R93 (includes R88 designs)
How it was run: as §1

| Sequence | apparent KD of MS2 coat protein (MS2 coat protein [1]) [nM] | apparent KD of MS2 coat protein (MS2 coat protein [2]) [nM] |
| --- | --- | --- |
| AAAAAACAUGAGGAUCACCCAUGUCCUCACGUGCGAGGAUAUGGAUGGAAACCAUACUGUCCAGAAGGCGCAUGUA [EteRNA is fun!] | 230 | 159 |
| AAAAAACAUGAGGAUCACCCAUGUCGAAAGACGUGAGGAUAUGUACAGACUUCGGUCUGUACAGAAGGCACAAAAA [SS1 - 1032] | 24.6 | 208 |
| AAAAAACAUGAGGAUCACCCAUGUCUUCGGACGUGAGGAUAUGUACAGACUUCGGUCUGUACAGAAGGCACGAAAA [SS1 - 1035] | 22.7 | 114 |
| AAAAAACAUGAGGAUCACCCAUGUGAAGAUAUGGAAGGAUAUACAAAGACGAAAGUCAAAGUAGAAGGUCUAAAAG [76%, Meechl 3] | 17.1 | 17.7 |
| AAAAAACAUGAGGAUCACCCAUGUGAGAACAUGGGAGGAUAUACGAGGACGAGAGUCAAGGUAGAAGGCCUAAAAG [Garnet 73] | 50.1 | 13.6 |
| AAAAAACAUGAGGAUCACCCAUGUGCAAAAUUCGCAGGAUAUUCCUCAAUUAAAUGAGAGGAAGAAGGGUGUAAAA [Nob's Hobby 25 - Jieux - Same State 1] | 27.4 | 130 |
| AAAAAACAUGAGGAUCACCCAUGUGCAAAAUUCGCAGGAUAUUUCUCAAUUAAAUGAGAGGAAGAAGGGUGAAAAA [Nob's Hobby 27 - Jieux - Same State 1] | 21.5 | 99.3 |
| AAAAACACAGUGCAGGAUAUGGUAAUAGUCACAUGAGGAUCACCCAUGUUCUUUUAUAAGAACGAUCAGAAGGGCGGUGAAAAAA [Mat - Same state - Malcolm Mod - D114] | 241 | 155 |
| AAAAAGAACACGCAGGAUAUGCAAAGAAACACAUGAGGAUCACCCAUGUCCAAAAACCCAAAAACGCAGAAGGGCGAAAAACCCA [Default title] | 25.6 | 28.3 |
| AAAACACAUGAGGAUCACCCAUGUGAAAACAUGAGAGGAUAUGCAUGGAAAACAUGCUAUGCAGAAGGCUCAUGUG [SS1 - 8] | 16.5 | 23.2 |
| AAAAGACAUGAGGAUCACCCAUGUAAAGACAUGAGAGGAUAUGCAUGGAAAACAUGCUGUGCAGAAGGCUCAUGUC [SS1 - 17] | 18.1 | 22.6 |
| AAAAGACAUGAGGAUCACCCAUGUCAAGACAUAGGAGGAUAUGUCAUGAAAAAAGACUUGACAGAAGGCCUUUGUC [SS1 - 51] | 16.7 | 17.4 |
| AAAAGACAUGAGGAUCACCCAUGUGAAAACGUAGGAGGAUAUGUCUGGAAAACAGACUGGACAGAAGGCCUGUGUC [SS1 - 33] | 24.4 | 36 |
| AAAAGACAUGAGGAUCACCCAUGUGAAAACGUGCGAGGAUAUGUAUGGAAACUAUACUGUACAGAAGGCGCAUGUC [SS1 - 81] | 19.9 | 24.3 |
| AAACCACAUGAGGAUCACCCAUGUAAAAAUAUGGGAGGAUAUGCGAAAAGAAACAAAGAAGCAGAAGGCCUAAAAA [75%, Ex sub1, 19] | 26.3 | 114 |
| AAAGACAUAGUUCAGGAUAUGGUAAUAGUCACAUGAGGAUCACCCAUGUGCAUUUAUAUGCGCGAUCAGAAGGGAGGUAAAAAAA [SameState2 Malc#16] | 17.5 | 21.9 |
